For 2 molecules, binding result and Kd results are on record in PMC9023281, “Polymerase theta-helicase promotes end joining by stripping single-stranded DNA-binding proteins and bridging DNA ends”.

The target in series [1] is T1, Polθ-h (Polθ helicase domain) (UniProt O75417 1-894). As to the kind of experiment: single-molecule ssDNA curtain oligo capture; captured in trans by Polθ-h on RPA-GFP-coated ssDNA; no capture without Polθ-h; Imaging Buffer: 40 mM Tris-HCl pH 8.0, 50 mM NaCl, 2 mM MgCl2, 1 mM DTT, 0.2 mg/ml BSA, 1 mM ATP; EMSA at room temperature, single-molecule at 37 C; PARP-1 tethering without BSA; displacement EMSA in 30 mM HEPES pH 8.0, 50 mM NaCl, 1.5 mM MgCl2, 1 mM DTT. Conditions: protein: recombinant; tags: pET19 N-terminal 6xHis-TwinStrep-SUMO; chain copies: 4; label: 5'-Atto647N.
T1 sequence (O75417 1-894): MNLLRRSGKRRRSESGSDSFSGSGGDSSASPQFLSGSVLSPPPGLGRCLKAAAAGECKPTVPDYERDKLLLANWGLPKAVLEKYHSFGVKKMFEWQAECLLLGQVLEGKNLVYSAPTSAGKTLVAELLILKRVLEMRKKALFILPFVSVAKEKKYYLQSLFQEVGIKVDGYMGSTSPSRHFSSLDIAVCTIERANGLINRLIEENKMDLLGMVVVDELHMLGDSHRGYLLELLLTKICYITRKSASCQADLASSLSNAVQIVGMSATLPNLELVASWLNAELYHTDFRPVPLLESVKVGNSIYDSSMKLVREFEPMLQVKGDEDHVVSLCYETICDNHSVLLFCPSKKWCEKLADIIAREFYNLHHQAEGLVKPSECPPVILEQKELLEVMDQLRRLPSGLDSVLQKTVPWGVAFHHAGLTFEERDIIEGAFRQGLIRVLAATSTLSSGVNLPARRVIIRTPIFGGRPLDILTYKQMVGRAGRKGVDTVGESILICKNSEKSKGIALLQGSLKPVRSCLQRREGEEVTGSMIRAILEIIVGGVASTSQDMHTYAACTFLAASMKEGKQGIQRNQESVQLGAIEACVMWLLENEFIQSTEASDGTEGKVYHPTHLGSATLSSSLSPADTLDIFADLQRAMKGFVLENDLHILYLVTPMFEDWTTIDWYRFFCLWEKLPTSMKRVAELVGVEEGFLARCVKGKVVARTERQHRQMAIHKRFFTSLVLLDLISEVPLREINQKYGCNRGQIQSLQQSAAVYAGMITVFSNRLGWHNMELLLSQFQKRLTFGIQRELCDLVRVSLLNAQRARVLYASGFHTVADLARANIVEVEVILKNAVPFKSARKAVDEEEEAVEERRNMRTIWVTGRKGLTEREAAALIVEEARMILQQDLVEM

The target of series [2] is T1, Polθ-h (Polθ helicase domain). The series is described as follows: EMSA; no PARP-1 modification; hyperbolic fit; Imaging Buffer: 40 mM Tris-HCl pH 8.0, 50 mM NaCl, 2 mM MgCl2, 1 mM DTT, 0.2 mg/ml BSA, 1 mM ATP; EMSA at room temperature, single-molecule at 37 C; PARP-1 tethering without BSA; displacement EMSA in 30 mM HEPES pH 8.0, 50 mM NaCl, 1.5 mM MgCl2, 1 mM DTT. The note with it: protein: recombinant; tags: pET19 N-terminal 6xHis-TwinStrep-SUMO; chain copies: 4; label: 5'-32P in EMSA; unlabeled as challenge in tethering assay.

TCCTCTTTTTCTTTTTTTCTTTTCTTCC (ssDNA) [Noncomp-647N]: the binding result in series [1] was “binds”.

Turning to TTTTTTTTTTTTTTTTTTTTTTTTTTTTTTTTTTTTTTTTTTTTTTTTTT (ssDNA) [dT50 (Poly-T50)], the Kd in series [2] amounted to 39 ± 12 nM.
